Data set [1] has as its target discoidin domain receptor 1 (DDR1), mouse DDR1a, tagged with cyan or yellow fluorescent protein (mouse). In words: FRET or BRET. In general terms: BRET reads energy transfer from a luciferase to a nearby fluorophore.

discoidin domain receptor 1 (DDR1), mouse DDR1a, tagged with cyan or yellow fluorescent protein, sequence (Q03146 20-911): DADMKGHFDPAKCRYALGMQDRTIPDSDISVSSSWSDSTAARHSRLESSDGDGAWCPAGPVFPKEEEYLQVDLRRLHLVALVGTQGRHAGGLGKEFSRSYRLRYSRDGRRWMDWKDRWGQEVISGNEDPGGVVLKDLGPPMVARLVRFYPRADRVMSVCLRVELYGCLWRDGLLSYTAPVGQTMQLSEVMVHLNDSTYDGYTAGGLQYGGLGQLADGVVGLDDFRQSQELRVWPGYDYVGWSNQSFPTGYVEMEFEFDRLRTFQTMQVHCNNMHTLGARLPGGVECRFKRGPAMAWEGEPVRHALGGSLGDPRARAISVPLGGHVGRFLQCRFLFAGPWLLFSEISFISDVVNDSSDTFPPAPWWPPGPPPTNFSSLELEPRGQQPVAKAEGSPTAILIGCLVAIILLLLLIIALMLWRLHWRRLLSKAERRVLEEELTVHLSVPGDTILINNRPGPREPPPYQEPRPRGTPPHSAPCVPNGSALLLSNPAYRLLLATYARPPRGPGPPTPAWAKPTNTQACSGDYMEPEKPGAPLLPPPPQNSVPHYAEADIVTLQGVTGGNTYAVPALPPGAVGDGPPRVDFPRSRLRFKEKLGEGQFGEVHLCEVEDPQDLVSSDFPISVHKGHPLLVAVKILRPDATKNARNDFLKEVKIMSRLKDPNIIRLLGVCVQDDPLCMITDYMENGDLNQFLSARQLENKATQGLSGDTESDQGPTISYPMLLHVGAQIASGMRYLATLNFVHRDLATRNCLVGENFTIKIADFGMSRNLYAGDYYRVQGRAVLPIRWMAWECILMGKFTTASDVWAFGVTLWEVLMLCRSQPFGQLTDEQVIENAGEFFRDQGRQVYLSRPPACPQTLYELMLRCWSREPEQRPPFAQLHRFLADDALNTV

In “FRET or BRET”, “discoidin domain receptor 1 (DDR1), mouse DDR1a, tagged with cyan or yellow fluorescent protein” had an FRET index FC/A (collagen 5 min, aggregated ROI) of 14.6; an FRET index FC/A (collagen 30 min, aggregated ROI) of 15.2; an FRET index FC/A (collagen 60 min, aggregated ROI) of 13.8; an FRET index FC/A (collagen 60 min, nonaggregated ROI) of 5.2. This substance yielded an FRET index FC/A (0 min, no collagen) in data set [1] of 5.1.
